Numbered stars: 1 amine (or outer) side, 2 acyl side, 3 side chain; on linkers, the order of the positions; unused ones are H or OH. Bridge positions count the residues as written; N and C are the ends. Square brackets hold non-standard residues; d marks the D form. Side chains are listed from the residue outwards. Ends that are not written are not given here. * marks the point of attachment. isoGlu = used interchangeably with γ-Glu; γGlu = O=C(O)[C@H](CCC(=O)[*:2])N[*:1]; Palmitoyl = CCCCCCCCCCCCCCCC(=O)*; Aib = CC(C)(N)C(=O)O
B1: Compound 6 (peptide)
peptide: H-HSQGTFTSDYSKYLDSKAAHDFVEWLLK([γGlu-Palmitoyl])A-NH2
SMILES: CCCCCCCCCCCCCCCC(=O)N[C@@H](CCC(=O)NCCCC[C@H](NC(=O)[C@H](CC(C)C)NC(=O)[C@H](CC(C)C)NC(=O)[C@H](Cc1c[nH]c2ccccc12)NC(=O)[C@H](CCC(=O)O)NC(=O)[C@@H](NC(=O)[C@H](Cc1ccccc1)NC(=O)[C@H](CC(=O)O)NC(=O)[C@H](Cc1c[nH]cn1)NC(=O)[C@H](C)NC(=O)[C@H](C)NC(=O)[C@H](CCCCN)NC(=O)[C@H](CO)NC(=O)[C@H](CC(=O)O)NC(=O)[C@H](CC(C)C)NC(=O)[C@H](Cc1ccc(O)cc1)NC(=O)[C@H](CCCCN)NC(=O)[C@H](CO)NC(=O)[C@H](Cc1ccc(O)cc1)NC(=O)[C@H](CC(=O)O)NC(=O)[C@H](CO)NC(=O)[C@@H](NC(=O)[C@H](Cc1ccccc1)NC(=O)[C@@H](NC(=O)CNC(=O)[C@H](CCC(N)=O)NC(=O)[C@H](CO)NC(=O)[C@@H](N)Cc1c[nH]cn1)[C@@H](C)O)[C@@H](C)O)C(C)C)C(=O)N[C@@H](C)C(N)=O)C(=O)O
B2: Compound 13 (peptide)
peptide: H[Aib]QGTFTSDYSKYLDSK([γGlu-Palmitoyl])AAHDFVEWLLKA-NH2
modifications: lactam 24-28; N-terminus assumed
SMILES: CCCCCCCCCCCCCCCC(=O)N[C@@H](CCC(=O)NCCCC[C@H](NC(=O)[C@H](CO)NC(=O)[C@H](CC(=O)O)NC(=O)[C@H](CC(C)C)NC(=O)[C@H](Cc1ccc(O)cc1)NC(=O)[C@H](CCCCN)NC(=O)[C@H](CO)NC(=O)[C@H](Cc1ccc(O)cc1)NC(=O)[C@H](CC(=O)O)NC(=O)[C@H](CO)NC(=O)[C@@H](NC(=O)[C@H](Cc1ccccc1)NC(=O)[C@@H](NC(=O)CNC(=O)[C@H](CCC(N)=O)NC(=O)C(C)(C)NC(=O)[C@@H](N)Cc1c[nH]cn1)[C@@H](C)O)[C@@H](C)O)C(=O)N[C@@H](C)C(=O)N[C@@H](C)C(=O)N[C@@H](Cc1c[nH]cn1)C(=O)N[C@@H](CC(=O)O)C(=O)N[C@@H](Cc1ccccc1)C(=O)N[C@H](C(=O)N[C@H]1CCC(=O)NCCCC[C@@H](C(=O)N[C@@H](C)C(N)=O)NC(=O)[C@H](CC(C)C)NC(=O)[C@H](CC(C)C)NC(=O)[C@H](Cc2c[nH]c3ccccc23)NC1=O)C(C)C)C(=O)O
B3: Compound 5 (peptide)
peptide: H-HSQGTFTSDYSKYLDSKAAHDFVEWLK([γGlu-Palmitoyl])RA-NH2
SMILES: CCCCCCCCCCCCCCCC(=O)N[C@@H](CCC(=O)NCCCC[C@H](NC(=O)[C@H](CC(C)C)NC(=O)[C@H](Cc1c[nH]c2ccccc12)NC(=O)[C@H](CCC(=O)O)NC(=O)[C@@H](NC(=O)[C@H](Cc1ccccc1)NC(=O)[C@H](CC(=O)O)NC(=O)[C@H](Cc1c[nH]cn1)NC(=O)[C@H](C)NC(=O)[C@H](C)NC(=O)[C@H](CCCCN)NC(=O)[C@H](CO)NC(=O)[C@H](CC(=O)O)NC(=O)[C@H](CC(C)C)NC(=O)[C@H](Cc1ccc(O)cc1)NC(=O)[C@H](CCCCN)NC(=O)[C@H](CO)NC(=O)[C@H](Cc1ccc(O)cc1)NC(=O)[C@H](CC(=O)O)NC(=O)[C@H](CO)NC(=O)[C@@H](NC(=O)[C@H](Cc1ccccc1)NC(=O)[C@@H](NC(=O)CNC(=O)[C@H](CCC(N)=O)NC(=O)[C@H](CO)NC(=O)[C@@H](N)Cc1c[nH]cn1)[C@@H](C)O)[C@@H](C)O)C(C)C)C(=O)N[C@@H](CCCNC(=N)N)C(=O)N[C@@H](C)C(N)=O)C(=O)O
B4: Compound 12 (peptide)
peptide: H-H[Aib]QGTFTSDYSKYLDSKAAHDFVEWLLK([γGlu-Palmitoyl])A-NH2
SMILES: CCCCCCCCCCCCCCCC(=O)N[C@@H](CCC(=O)NCCCC[C@H](NC(=O)[C@H](CC(C)C)NC(=O)[C@H](CC(C)C)NC(=O)[C@H](Cc1c[nH]c2ccccc12)NC(=O)[C@H](CCC(=O)O)NC(=O)[C@@H](NC(=O)[C@H](Cc1ccccc1)NC(=O)[C@H](CC(=O)O)NC(=O)[C@H](Cc1c[nH]cn1)NC(=O)[C@H](C)NC(=O)[C@H](C)NC(=O)[C@H](CCCCN)NC(=O)[C@H](CO)NC(=O)[C@H](CC(=O)O)NC(=O)[C@H](CC(C)C)NC(=O)[C@H](Cc1ccc(O)cc1)NC(=O)[C@H](CCCCN)NC(=O)[C@H](CO)NC(=O)[C@H](Cc1ccc(O)cc1)NC(=O)[C@H](CC(=O)O)NC(=O)[C@H](CO)NC(=O)[C@@H](NC(=O)[C@H](Cc1ccccc1)NC(=O)[C@@H](NC(=O)CNC(=O)[C@H](CCC(N)=O)NC(=O)C(C)(C)NC(=O)[C@@H](N)Cc1c[nH]cn1)[C@@H](C)O)[C@@H](C)O)C(C)C)C(=O)N[C@@H](C)C(N)=O)C(=O)O
B5: Compound 15 (peptide)
peptide: HXQGTFTSDYSKYLDSKAAHDFVEWLLSA
modifications: Aib at position 2; K(Hexadecanoyl-[3-Aminopropanoyl]) at position 17; C-terminal amide (NH2)
B6: Compound 16 (peptide)
peptide: HXQGTFTSDYSKYLDSKAAHDFVEWLLSA
modifications: Aib at position 2; K(Hexadecanoyl-[8-Aminooctanoyl]) at position 17; C-terminal amide (NH2)
B7: Compound 10 (peptide)
peptide: H-H[Aib]QGTFTSDYSKYLDSKAAK([γGlu-Palmitoyl])DFVAWLLRA-NH2
SMILES: CCCCCCCCCCCCCCCC(=O)N[C@@H](CCC(=O)NCCCC[C@H](NC(=O)[C@H](C)NC(=O)[C@H](C)NC(=O)[C@H](CCCCN)NC(=O)[C@H](CO)NC(=O)[C@H](CC(=O)O)NC(=O)[C@H](CC(C)C)NC(=O)[C@H](Cc1ccc(O)cc1)NC(=O)[C@H](CCCCN)NC(=O)[C@H](CO)NC(=O)[C@H](Cc1ccc(O)cc1)NC(=O)[C@H](CC(=O)O)NC(=O)[C@H](CO)NC(=O)[C@@H](NC(=O)[C@H](Cc1ccccc1)NC(=O)[C@@H](NC(=O)CNC(=O)[C@H](CCC(N)=O)NC(=O)C(C)(C)NC(=O)[C@@H](N)Cc1c[nH]cn1)[C@@H](C)O)[C@@H](C)O)C(=O)N[C@@H](CC(=O)O)C(=O)N[C@@H](Cc1ccccc1)C(=O)N[C@H](C(=O)N[C@@H](C)C(=O)N[C@@H](Cc1c[nH]c2ccccc12)C(=O)N[C@@H](CC(C)C)C(=O)N[C@@H](CC(C)C)C(=O)N[C@@H](CCCNC(=N)N)C(=O)N[C@@H](C)C(N)=O)C(C)C)C(=O)O
B8: Compound 9 (peptide)
peptide: H-H[Aib]QGTFTSDYSKYLDSK([γGlu-Palmitoyl])AARDFVAWLLRA-NH2
SMILES: CCCCCCCCCCCCCCCC(=O)N[C@@H](CCC(=O)NCCCC[C@H](NC(=O)[C@H](CO)NC(=O)[C@H](CC(=O)O)NC(=O)[C@H](CC(C)C)NC(=O)[C@H](Cc1ccc(O)cc1)NC(=O)[C@H](CCCCN)NC(=O)[C@H](CO)NC(=O)[C@H](Cc1ccc(O)cc1)NC(=O)[C@H](CC(=O)O)NC(=O)[C@H](CO)NC(=O)[C@@H](NC(=O)[C@H](Cc1ccccc1)NC(=O)[C@@H](NC(=O)CNC(=O)[C@H](CCC(N)=O)NC(=O)C(C)(C)NC(=O)[C@@H](N)Cc1c[nH]cn1)[C@@H](C)O)[C@@H](C)O)C(=O)N[C@@H](C)C(=O)N[C@@H](C)C(=O)N[C@@H](CCCNC(=N)N)C(=O)N[C@@H](CC(=O)O)C(=O)N[C@@H](Cc1ccccc1)C(=O)N[C@H](C(=O)N[C@@H](C)C(=O)N[C@@H](Cc1c[nH]c2ccccc12)C(=O)N[C@@H](CC(C)C)C(=O)N[C@@H](CC(C)C)C(=O)N[C@@H](CCCNC(=N)N)C(=O)N[C@@H](C)C(N)=O)C(C)C)C(=O)O

These binders were tested against T1, human glucagon-like peptide 1 receptor (GLP-1R) (human, UniProt P43220 24-463) (assay: cell-based or functional assay).
T1 sequence (P43220 24-463): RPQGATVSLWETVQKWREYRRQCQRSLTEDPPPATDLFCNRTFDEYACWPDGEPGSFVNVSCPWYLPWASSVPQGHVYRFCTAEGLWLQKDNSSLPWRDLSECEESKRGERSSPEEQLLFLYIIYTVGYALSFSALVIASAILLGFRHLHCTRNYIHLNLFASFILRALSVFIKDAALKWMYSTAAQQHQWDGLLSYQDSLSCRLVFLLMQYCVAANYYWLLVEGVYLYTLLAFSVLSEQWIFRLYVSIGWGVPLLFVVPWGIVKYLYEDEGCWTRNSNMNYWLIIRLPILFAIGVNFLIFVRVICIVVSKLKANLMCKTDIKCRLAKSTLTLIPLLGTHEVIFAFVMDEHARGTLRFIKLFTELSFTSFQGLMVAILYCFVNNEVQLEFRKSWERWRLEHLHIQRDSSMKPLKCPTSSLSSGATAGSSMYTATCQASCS

Binder	EC50 (nM) GLP-1R, cAMP formation
H[Aib]QGTFTSDYSKYLDSK([isoGlu-Palmitoyl])AAHEFVEWLLSA-NH2 [Compound 41]	0.13 nM
H-H[Aib]QGTFTSDYSKYLDEK([isoGlu-Palmitoyl])AAHDFVEWLLSA-NH2 [Compound 40]	0.2 nM
H-H[Aib]QGTFTSDYSKYLDSK([isoGlu-Palmitoyl])AAHDFVEWLLEA-NH2 [Compound 43]	0.082 nM
H-H[Aib]QGTFTSDYSKYLDSK([isoGlu-Palmitoyl])AAEDFVEWLLSA-NH2 [Compound 42]	0.03 nM

What follows are binders tested against T2, human glucagon receptor (Glucagon-R) (human, UniProt P47871 26-477) (assay: cell-based or functional assay).

Binder	EC50 (nM) GluR, cAMP formation
H[Aib]QGTFTSDYSKYLDSK([isoGlu-Palmitoyl])AAHEFVEWLLSA-NH2 [Compound 41]	0.08 nM
H-H[Aib]QGTFTSDYSKYLDEK([isoGlu-Palmitoyl])AAHDFVEWLLSA-NH2 [Compound 40]	0.18 nM
H-H[Aib]QGTFTSDYSKYLDSK([isoGlu-Palmitoyl])AAHDFVEWLLEA-NH2 [Compound 43]	0.12 nM
H-H[Aib]QGTFTSDYSKYLDSK([isoGlu-Palmitoyl])AAEDFVEWLLSA-NH2 [Compound 42]	0.27 nM

Target: T1, human glucagon-like peptide 1 receptor …
Experiment: cell-based or functional assay
Remark: another data set of the same source

Binder	EC50 (nM) GLP-1R, cAMP formation
HXQGTFTSDYSKYLDSKAAHDFVEWLLSA (Aib at position 2; K(Hexadecanoyl-γ-Glu) at position 17; C-terminal amide (NH2)) [Compound 7]	0.11 nM
B1	0.09 nM
B2	0.08 nM
B3	0.57 nM
B4	0.27 nM
B5	0.23 nM
B6	0.24 nM
HXQGTFTSDYSKYLDSKAAHDFVEWLLSA (Aib at position 2; K(Dodecanoyl-γ-Glu) at position 17; C-terminal amide (NH2)) [Compound 14]	0.14 nM
B7	0.15 nM
B8	0.12 nM

Target: T2, human glucagon receptor (Glucagon-R)
Experiment: cell-based or functional assay
Remark: another data set of the same source

Binder	EC50 (nM) GluR, cAMP formation
HXQGTFTSDYSKYLDSKAAHDFVEWLLSA (Aib at position 2; K(Hexadecanoyl-γ-Glu) at position 17; C-terminal amide (NH2)) [Compound 7]	0.16 nM
B1	0.1 nM
B2	0.26 nM
B3	0.22 nM
B4	0.27 nM
B5	1.87 nM
B6	0.46 nM
HXQGTFTSDYSKYLDSKAAHDFVEWLLSA (Aib at position 2; K(Dodecanoyl-γ-Glu) at position 17; C-terminal amide (NH2)) [Compound 14]	0.78 nM
B7	0.63 nM
B8	0.17 nM
